Values quoted from earlier work, collected in publication PMC7654312.

Key:
[1] = system: Lys210
[2] = biological target: Lys210 (UniProt position 210, VVKVAKLGISE)

Substance	pKa [1]	pKa [2]
Retro-aldolase RA95.5 (evolved variant of RA95.0) (synthetic construct (design on an indole-3-glycerol phosphate synthase TIM-barrel scaffold); T83K)	7.6	
Retro-aldolase RA95.0 (computationally designed) (synthetic construct (design on an indole-3-glycerol phosphate synthase TIM-barrel scaffold))		8.1
